Patent US20060093613A1 (published 2006)

Target: T1, influenza virus nucleoprotein peptide on H-2Db (mouse)
T1 peptide: ASNENMDAM
Assay: Kd or kinetics

B1: F5 TCR (TCR, V domains shown)
Valpha: GDSVTQMQGQVTLSEDDFLFINCTYSTTWYPTLFWYVQYPGEGPQLLLKVTTANNKGISRGFEATYDKGTTSFHLQKASVQESDSAVYYCVLGDRQGGRALIFGTGTTVSVSP
Vbeta: KAGVTQTPRYLIKTRGQQVTLSCSPISGHRSVSWYQQTPGQGLQFLFEYFSETQRNKGNFPGRFSGRQFSNSRSEMNVSTLELGDSALYLCASSFDSGNSPLHFGNGTRLTVT
- binding result: recognises
